{"source": "patent US20220380801A1", "about": "“TRIPARTITE SYSTEMS FOR PROTEIN DIMERIZATION AND METHODS OF USE” (priority 2019, published 2022)", "settings_in_all_cases": "remark: other sources report otherwise", "key": {"[1]": {"molecular_target": "T1, HCV NS3/4A PR (S139A):simeprevir complex (Hepatitis C virus subtype 1a)"}, "[2]": {"molecular_target": "T1, HCV NS3/4A PR (S139A):simeprevir …", "remark": "listed apart in the source"}, "[3]": {"molecular_target": "T1, HCV NS3/4A PR (S139A):simeprevir …", "test": "HTRF, with simeprevir"}, "[4]": {"molecular_target": "HCV NS3/4A PR K136H (S139A background), in the presence of simeprevir (Hepatitis C virus subtype 1a)"}, "[5]": {"molecular_target": "T1, HCV NS3/4A PR (S139A):simeprevir …", "remark": "listed apart in the source"}, "[6]": {"molecular_target": "T1, HCV NS3/4A PR (S139A):simeprevir …", "test": "phage ELISA"}, "[7]": {"molecular_target": "T1, HCV NS3/4A PR (S139A):simeprevir …", "test": "SPR Biacore 8K, PRSIM immobilised, protease flowed with 10 nM simeprevir"}, "[8]": {"molecular_target": "T1, HCV NS3/4A PR (S139A):simeprevir …", "remark": "listed apart in the source"}, "[9]": {"molecular_target": "T1, HCV NS3/4A PR (S139A):simeprevir …", "remark": "listed apart in the source"}}, "note": "Where two headings read alike, the source gives them in different places.", "data": [{"binder": "PRSIM_23 (designed binder) RLDAPSQIEVKDVTDTTALITWVDPRYDDIWWFELTYGIKDVPGDRTTIKLYLNDPYYSIGNLKPDTEYEVSLISYTGDSYSRSGSNPAKITFKTGL", "values": [{"measurement": "Kd", "setting": "[1]", "result": 5.4, "unit": "nM"}, {"measurement": "EC50 (read off the curve)", "setting": "[2]", "result": 2, "unit": "nM"}, {"measurement": "HTRF max. signal (% delta F)", "setting": "[3]", "result": 1570, "unit": "% delta F"}, {"measurement": "EC50 (read off the curve)", "setting": "[4]", "result": 4, "unit": "nM"}, {"measurement": "EC50 (read off the curve)", "setting": "[5]", "result": 3, "unit": "nM"}, {"measurement": "Binding fold change [(HCV protease + Simeprevir binding)/HCV protease alone]", "setting": "[6]", "result": 23.8, "unit": "fold"}, {"measurement": "Kd", "setting": "[7]", "result": 6.3, "unit": "nM"}, {"measurement": "koff", "setting": "[7]", "result": 0.0318, "unit": "s⁻¹"}, {"measurement": "kon", "setting": "[7]", "result": "5.03e+06", "unit": "M⁻¹ s⁻¹"}, {"measurement": "Simeprevir EC50 for induction of heterodimerisation", "setting": "[8]", "result": 4.03, "unit": "nM"}, {"measurement": "Simeprevir EC50 for induction of heterodimerisation", "setting": "[9]", "result": 4.53, "unit": "nM"}]}]}
